Square brackets hold non-standard residues; d marks the D form. Ends that are not written are not given here.
Biological target: T1, mouse ADAMTS7 (Mus musculus, UniProt Q68SA9, E373Q)
T1 construct: Full-length mouse Adamts7 1-1857 (Uniprot Q68SA9, WT or E373Q catalytic mutant); expressed in transfected cells; host or cells: Human Coronary Artery Smooth Muscle Cells (HCA-SMC, Lonza), adenovirus 50 MOI
T1 sequence (Q68SA9 221-1657 E373Q): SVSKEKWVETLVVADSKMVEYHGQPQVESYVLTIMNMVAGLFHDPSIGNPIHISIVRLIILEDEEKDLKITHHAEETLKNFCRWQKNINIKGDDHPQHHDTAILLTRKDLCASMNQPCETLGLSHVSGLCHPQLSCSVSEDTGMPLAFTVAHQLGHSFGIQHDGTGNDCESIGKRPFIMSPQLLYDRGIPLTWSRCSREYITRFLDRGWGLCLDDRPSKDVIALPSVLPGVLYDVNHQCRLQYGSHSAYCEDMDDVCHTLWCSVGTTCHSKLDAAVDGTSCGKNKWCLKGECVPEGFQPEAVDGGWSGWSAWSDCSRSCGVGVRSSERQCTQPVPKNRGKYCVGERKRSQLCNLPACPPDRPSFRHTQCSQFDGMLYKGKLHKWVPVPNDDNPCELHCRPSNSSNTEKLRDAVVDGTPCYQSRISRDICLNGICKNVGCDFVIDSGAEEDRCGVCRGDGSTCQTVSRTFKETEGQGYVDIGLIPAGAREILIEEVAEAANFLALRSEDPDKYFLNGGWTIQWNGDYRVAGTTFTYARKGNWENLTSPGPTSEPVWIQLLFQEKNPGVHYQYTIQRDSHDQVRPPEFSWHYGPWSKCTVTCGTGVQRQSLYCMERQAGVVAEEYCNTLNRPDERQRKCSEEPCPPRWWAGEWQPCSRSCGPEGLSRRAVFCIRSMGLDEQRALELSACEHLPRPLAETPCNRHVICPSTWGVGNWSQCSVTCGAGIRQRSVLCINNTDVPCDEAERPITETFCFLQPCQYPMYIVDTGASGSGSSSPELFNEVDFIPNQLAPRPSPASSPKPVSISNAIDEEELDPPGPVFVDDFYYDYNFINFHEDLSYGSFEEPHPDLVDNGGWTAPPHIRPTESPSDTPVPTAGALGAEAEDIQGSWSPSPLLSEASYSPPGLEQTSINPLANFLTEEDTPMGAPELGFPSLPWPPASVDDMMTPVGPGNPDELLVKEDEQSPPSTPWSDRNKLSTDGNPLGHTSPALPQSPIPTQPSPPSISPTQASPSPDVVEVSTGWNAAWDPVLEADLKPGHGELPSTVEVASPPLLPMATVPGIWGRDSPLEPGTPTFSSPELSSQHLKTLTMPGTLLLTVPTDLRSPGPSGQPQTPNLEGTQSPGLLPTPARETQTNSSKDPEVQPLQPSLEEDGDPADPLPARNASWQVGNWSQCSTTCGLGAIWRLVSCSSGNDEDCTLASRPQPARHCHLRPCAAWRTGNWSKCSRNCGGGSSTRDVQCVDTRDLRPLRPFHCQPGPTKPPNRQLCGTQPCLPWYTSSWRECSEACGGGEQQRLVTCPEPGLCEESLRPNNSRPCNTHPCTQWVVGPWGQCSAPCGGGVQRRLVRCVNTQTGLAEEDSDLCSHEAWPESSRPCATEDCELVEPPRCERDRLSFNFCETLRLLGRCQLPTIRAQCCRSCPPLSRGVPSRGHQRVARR
Experiment: TMT10 TAILS N-terminomics, SMC1 experiment (Ad-mADAMTS7 WT vs EQ vs Luc, technical replicates, trypsin digest)
Assay type: cell-based
Conditions: TAILS neo-N-terminal peptide abundance; log fold change, Ad-mADAMTS7 EQ over Luc
Description: ADAMTS7 Expression, Cell Culture and Preparation of the Secreted Proteins—Full-length mouse Adamts7 1-1857 (Uniprot Q68SA9, WT or E373Q catalytic mutant) with a carboxyl terminal 3xFLAG tag was used to generate custom adenoviruses as previously described. Adeno-CMV-Luciferase (Ad-Luc) from Vector Biolabs was used as a negative control. Human Coronary Artery Smooth Muscle Cells (HCA-SMC) were obtained from Lonza and expanded in Lonza SmGM-2 media in 15 cm tissue culture plates. Twenty-four hours before media collection, near confluent plates were transduced with 50 MOI adenovirus and switched to Lonza Basal SM media with volumes of 20 ml per 15 cm plate. Expression of the Flag tagged ADAMTS7 was confirmed from the media using western blot and detected using the anti-Flag M2-HRP antibody (Sigma, A8592). Collected media was processed by adding protease inhibitors (1 mM EDTA and 1 mM PMSF) and clarified by 500 g×5 min spin at 4 C to pellet cell debris. Cell media supernatants were then passed through a 0.22 um filter and kept chilled. Processed media was then concentrated 50-100× using 3 kDa Centricon Plus-70 filter unit, spun at 3,500 g×60 min at 4 C. Approximately 10% of the processed, concentrated media was set aside for total secretome proteolytic analysis. The remaining 90% of the processed, concentrated media was buffer exchanged into 50 mM HEPES pH 8.0, 150 mM NaCl (2×50 ml) using the 3 kDa Centricon Plus-70 filter unit and concentrated to >2 mg/ml to serve as input for the TAILS experiment. Secretome and TAILS input samples were stored at −80° C.
For the first experiment, referred to as SMC1, 120 ml of media from 6×15 cm dishes was pooled from each condition (Luc, WT, EQ) and processed to produce three separate inputs for the TAILS experiment. Luc, WT and EQ inputs from the SMC1 experiment were each divided into triplicate 400 ug samples to generate technical replicate TAILS data. For the second experiment, referred to as SMC2, media was processed separately in triplicate for each condition (Luc1, Luc2, Luc3, WT1, WT2, WT3, EQ1, EQ2, EQ3) using 60 ml of media from 3×15 cm dishes for each process replicate. Inputs from the SMC2 experiment used process replicates of 300 ug each to generate TAILS data. The third experiment used input from cultured Human umbilical vein endothelial cells (HUVEC) from Lifeline Cell Technology grown in VascuLife Media and transduced in Lifeline Basal EC (+bFGF2 10 ng/ml). The HUVEC experiment used the same strategy as the SMC2 experiment, with 40 ml of media from 2×15 cm dishes for each process replicate and used 200 ug each to generate TAILS data. Inputs for process replicate experiments were restricted to the lowest concentration from the 9 parallel samples for SMC2 or HUVEC.
TMT10 isotopic labeling and negative selection of non-labeled peptides-Sample preparation was performed based on the TAILS protocol from the Overall lab with some modifications. From a single experiment, nine parallel protein samples in 50 mM HEPES pH 8.0, 150 mM NaCl were separately denatured with guanidinium chloride (Sigma, G4505) to reach a final concentration of 2.5M guanidinium chloride and 250 mM HEPES and incubated at 65° C. for 15 min. Reduction was achieved through addition of tris(2-carboxylethyl) phosphine (TCEP) at a final concentration of […] and incubated at 65° C. for 45 min. Alkylation reaction was performed with addition of iodoacetamide (IAA, Sigma, A3221) to a final concentration of 10 mM IAA for 15 min at room temperature in the dark. Following denaturation, reduction and alkylation steps, ten percent of each of the nine parallel protein samples was removed and combined to serve as a pooled reference. Isobaric tags were added to free amine groups using the TMT10plex Isobaric Mass Tagging Kit (ThermoFisher, 90113) with TMT channels randomly assigned to the nine samples and TMT 131 assigned to the pooled reference. […]

logFC.mEQ.over.Luc | Substance
−0.14 | HSPG2_4133 (DGFKGDLCEHEENPCQLR; listed as Homo sapiens)
0.09 | HTRA1_33 (LAAGCPDR; listed as Homo sapiens)
0.00 | IFI30_43 (YKTGNLYLR; listed as Homo sapiens)
−0.04 | IGFBP3_31 (SAGLGPVVR; listed as Homo sapiens)
0.28 | IGFBP3_32 (AGLGPVVR; listed as Homo sapiens)
−0.09 | IGFBP3_200 (FSSESKR; listed as Homo sapiens)
0.29 | IGFBP7_101 (AAGGPGVSGVCVCKSR; listed as Homo sapiens)
−0.53 | LASP1_123 (HEEFEKSR; listed as Homo sapiens)
0.94 | LGALS1_53 (HGDANTIVCNSKDGGAWGTEQR; listed as Homo sapiens)
0.57 | LGALS3BP_447 (FQAPSDYR; listed as Homo sapiens)
−0.10 | LOXL1_219 (VASAGVIYPYQPR; listed as Homo sapiens)
0.09 | LOXL2_37 (FQQPAPEYHQPQAPANVAKIQLR; listed as Homo sapiens)
0.11 | LOXL2_38 ([code q]QPAPEYHQPQAPANVAKIQLR; not fully specified; listed as Homo sapiens)
0.00 | LOXL2_318 (AYKPEQPLVR; listed as Homo sapiens)
−0.11 | LOX_58 (LSLGSQYQPQR; listed as Homo sapiens)
−0.16 | LOX_80 (ANASAQQPR; listed as Homo sapiens)

logFC.mEQ.over.Luc | Substance
−0.30 | LOX_81 (NASAQQPR; listed as Homo sapiens)
−0.22 | LOX_123 (HWFQAGYSTSR; listed as Homo sapiens)
0.08 | LOX_124 (WFQAGYSTSR; listed as Homo sapiens)
0.02 | LOX_126 (QAGYSTSR; listed as Homo sapiens)
0.14 | LTBP1_393 (LTATNFR; listed as Homo sapiens)
−0.01 | LTBP1_494 (SVQIHQVSR; listed as Homo sapiens)
0.13 | LTBP1_540 (HQQVIPHVYPVAAKTQLGR; listed as Homo sapiens)
−1.05 | LTBP1_546 (HVYPVAAKTQLGR; listed as Homo sapiens)
−0.42 | LTBP2_485 (SVQIHQVAQVR; listed as Homo sapiens)
0.28 | LTBP2_533 (SGEPPRPLPPAAPR; listed as Homo sapiens)
0.05 | LTBP2_677 (SLGPGTCTLPLAQR; listed as Homo sapiens)
0.29 | LTBP2_760 (SSGALPGPAER; listed as Homo sapiens)
0.03 | LTBP2_1023 (GKCTNLEGSFR; listed as Homo sapiens)
0.31 | LTBP2_1371 (SGQKGHAPCSSVLGR; listed as Homo sapiens)
0.23 | LTBP2_1560 (TTYTECCCQDGEAWSQQCALCPPR; listed as Homo sapiens)
0.32 | LTBP2_1584 (SSEVYAQLCNVAR; listed as Homo sapiens)
